For assay [1], the target named is T1, mouse DLL3 his tag protein (KACTUS, Cat. No. DLL-MM103) (mouse, UniProt O88516 33-490, limits assumed).
T1 construct: Bought protein; also called mDLL3-his; mouse DLL3 protein; not shown: his tag
T1 sequence (looked up): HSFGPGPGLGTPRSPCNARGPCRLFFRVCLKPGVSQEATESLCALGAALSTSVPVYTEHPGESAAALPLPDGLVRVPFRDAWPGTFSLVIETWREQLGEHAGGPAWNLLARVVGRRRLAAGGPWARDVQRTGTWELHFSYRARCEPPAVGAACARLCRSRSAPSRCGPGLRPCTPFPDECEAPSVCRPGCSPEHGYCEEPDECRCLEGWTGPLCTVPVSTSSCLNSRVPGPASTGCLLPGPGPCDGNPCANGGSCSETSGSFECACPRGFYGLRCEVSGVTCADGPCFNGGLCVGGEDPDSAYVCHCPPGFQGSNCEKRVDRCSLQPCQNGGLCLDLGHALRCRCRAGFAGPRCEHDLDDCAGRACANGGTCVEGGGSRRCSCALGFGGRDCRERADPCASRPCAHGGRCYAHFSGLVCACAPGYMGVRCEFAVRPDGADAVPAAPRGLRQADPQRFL
Nature of the assay: ELISA, mDLL3-his coated at 1 ug/mL. Background: ELISA stands for enzyme-linked immunosorbent assay.

The target of assay [2] is T2, ECD of human DLL3 protein fused with his tag (Acro Bio, Cat. No. DL3-H52H4) (human, UniProt Q9NYJ7 27-492).
T2 construct: range 27-492; Bought protein; also called hDLL3-his; human DLL3-his protein; not shown: his tag
T2 sequence (looked up): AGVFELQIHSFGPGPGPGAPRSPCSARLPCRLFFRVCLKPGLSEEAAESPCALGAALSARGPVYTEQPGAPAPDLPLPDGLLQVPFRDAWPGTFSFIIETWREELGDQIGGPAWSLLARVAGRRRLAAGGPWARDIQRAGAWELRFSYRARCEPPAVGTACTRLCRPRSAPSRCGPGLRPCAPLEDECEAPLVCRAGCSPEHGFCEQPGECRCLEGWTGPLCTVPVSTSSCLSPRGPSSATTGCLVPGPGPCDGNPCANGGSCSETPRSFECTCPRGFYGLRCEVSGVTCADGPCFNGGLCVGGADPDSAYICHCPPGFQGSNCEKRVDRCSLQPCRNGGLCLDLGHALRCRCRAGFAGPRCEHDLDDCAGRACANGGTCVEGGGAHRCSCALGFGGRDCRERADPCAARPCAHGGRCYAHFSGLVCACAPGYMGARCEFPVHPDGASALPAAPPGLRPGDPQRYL
Description: ELISA, hDLL3-his coated at 1 ug/mL.

The target of assay [3] is T3, human DLL4 his tag fusion protein (Sino Biological, Cat. No. 10171-H08H) (human, UniProt Q9NR61 27-524).
T3 construct: Bought protein; also called hDLL4-his; hDLL4 protein; not shown: his tag
Description: ELISA, hDLL4-his coated at 1 ug/mL.

Assay [4] deals with T4, human full length DLL1 expressed on CHO-K1 cells (human, UniProt O00548 18-723).
T4 construct: whole, on cells; also called CHO-K1-hDLL1
T4 sequence (looked up): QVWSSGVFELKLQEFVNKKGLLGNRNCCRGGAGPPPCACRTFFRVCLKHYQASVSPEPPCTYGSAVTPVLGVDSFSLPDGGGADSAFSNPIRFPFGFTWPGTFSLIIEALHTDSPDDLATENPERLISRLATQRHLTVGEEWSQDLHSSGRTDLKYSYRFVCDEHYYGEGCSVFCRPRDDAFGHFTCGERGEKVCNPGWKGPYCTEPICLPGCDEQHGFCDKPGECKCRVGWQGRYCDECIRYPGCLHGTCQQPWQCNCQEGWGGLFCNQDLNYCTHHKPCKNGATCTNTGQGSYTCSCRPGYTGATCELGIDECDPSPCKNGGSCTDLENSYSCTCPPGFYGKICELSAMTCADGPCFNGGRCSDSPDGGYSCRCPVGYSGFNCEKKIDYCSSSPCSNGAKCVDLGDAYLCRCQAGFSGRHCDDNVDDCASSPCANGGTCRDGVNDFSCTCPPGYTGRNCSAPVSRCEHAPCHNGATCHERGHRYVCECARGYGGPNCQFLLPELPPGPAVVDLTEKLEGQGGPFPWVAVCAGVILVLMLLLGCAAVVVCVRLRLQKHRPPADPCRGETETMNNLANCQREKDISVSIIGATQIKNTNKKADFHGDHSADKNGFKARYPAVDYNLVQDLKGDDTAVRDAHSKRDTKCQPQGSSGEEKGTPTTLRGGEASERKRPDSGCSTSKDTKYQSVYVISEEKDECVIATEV
Description: flow cytometry on CHO-K1-hDLL1 cells.

In assay [5] the target is T5, ECD of human DLL3 over-expressed on HEK293 cells (human, UniProt Q9NYJ7 27-492).
T5 construct: extracellular domain; also called HEK293-hDLL3; human DLL3 expressed on HEK293 cells
T5 sequence (looked up): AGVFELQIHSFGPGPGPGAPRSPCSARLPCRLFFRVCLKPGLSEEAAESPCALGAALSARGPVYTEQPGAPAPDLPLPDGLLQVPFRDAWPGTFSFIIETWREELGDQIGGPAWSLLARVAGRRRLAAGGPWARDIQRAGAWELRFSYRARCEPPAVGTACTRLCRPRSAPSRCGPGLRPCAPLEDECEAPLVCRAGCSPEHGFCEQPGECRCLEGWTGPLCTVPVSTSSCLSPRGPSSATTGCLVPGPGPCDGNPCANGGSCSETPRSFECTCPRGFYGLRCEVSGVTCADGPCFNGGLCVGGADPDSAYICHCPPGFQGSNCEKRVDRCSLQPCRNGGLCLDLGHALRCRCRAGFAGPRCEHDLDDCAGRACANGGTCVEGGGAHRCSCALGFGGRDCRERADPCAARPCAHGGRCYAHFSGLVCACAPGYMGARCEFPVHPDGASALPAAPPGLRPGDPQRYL
Nature of the assay: flow cytometry on HEK293-hDLL3 cells. For orientation: A flow cytometer gives signals particle by particle.

The target in assay [6] is T6, human DLL1 his tag fusion protein (Sino Biological, Cat. No. 11635-H08H) (human, UniProt O00548 18-540).
T6 construct: Bought protein; also called hDLL1-his; hDLL1 protein; not shown: his tag
T6 sequence (looked up): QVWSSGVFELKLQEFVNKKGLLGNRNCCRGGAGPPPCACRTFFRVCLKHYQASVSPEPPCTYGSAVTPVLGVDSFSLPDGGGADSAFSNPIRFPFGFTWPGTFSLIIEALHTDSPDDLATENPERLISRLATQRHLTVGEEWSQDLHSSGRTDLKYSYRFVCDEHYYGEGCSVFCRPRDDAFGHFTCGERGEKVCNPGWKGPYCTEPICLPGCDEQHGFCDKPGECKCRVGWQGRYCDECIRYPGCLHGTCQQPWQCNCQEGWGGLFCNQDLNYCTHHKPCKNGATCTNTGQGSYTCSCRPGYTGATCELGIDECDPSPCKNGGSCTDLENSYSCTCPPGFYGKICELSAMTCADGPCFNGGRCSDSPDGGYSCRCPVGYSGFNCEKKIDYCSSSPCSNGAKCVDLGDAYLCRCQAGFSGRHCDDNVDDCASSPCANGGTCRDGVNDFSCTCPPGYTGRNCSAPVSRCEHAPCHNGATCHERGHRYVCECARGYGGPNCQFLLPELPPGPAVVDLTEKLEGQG
Nature of the assay: ELISA, hDLL1-his coated at 1 ug/mL.

In assay [7] the target is T7, human DLL3 endogenously expressed on SCLC tumor cell lines SHP77 and NCI-H82 (human, UniProt Q9NYJ7 27-618).
T7 construct: whole, on cells; also called human DLL3 expressed on tumor cells
T7 sequence (looked up): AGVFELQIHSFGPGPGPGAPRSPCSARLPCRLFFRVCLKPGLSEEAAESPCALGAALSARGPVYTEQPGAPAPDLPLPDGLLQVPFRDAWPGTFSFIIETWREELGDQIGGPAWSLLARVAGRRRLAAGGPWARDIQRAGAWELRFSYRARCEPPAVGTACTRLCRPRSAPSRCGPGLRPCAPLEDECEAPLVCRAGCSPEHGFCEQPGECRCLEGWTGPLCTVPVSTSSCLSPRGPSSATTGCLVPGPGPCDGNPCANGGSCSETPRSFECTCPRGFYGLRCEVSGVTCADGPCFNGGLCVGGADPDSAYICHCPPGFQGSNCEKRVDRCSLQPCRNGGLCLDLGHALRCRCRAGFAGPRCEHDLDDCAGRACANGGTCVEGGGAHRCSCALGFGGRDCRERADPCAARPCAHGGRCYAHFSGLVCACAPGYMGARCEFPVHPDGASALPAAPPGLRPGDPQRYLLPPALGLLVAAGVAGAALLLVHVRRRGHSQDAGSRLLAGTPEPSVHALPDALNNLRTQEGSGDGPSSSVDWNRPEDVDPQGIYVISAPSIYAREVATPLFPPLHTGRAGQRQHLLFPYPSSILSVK
Description: flow cytometry on SHP77 and NCI-H82 cells.

This is an account of results in patent publication EP4803151A2 (Lepu Biopharma Co., Ltd., dated 2026).

T3 sequence (Q9NR61 27-524 limits assumed): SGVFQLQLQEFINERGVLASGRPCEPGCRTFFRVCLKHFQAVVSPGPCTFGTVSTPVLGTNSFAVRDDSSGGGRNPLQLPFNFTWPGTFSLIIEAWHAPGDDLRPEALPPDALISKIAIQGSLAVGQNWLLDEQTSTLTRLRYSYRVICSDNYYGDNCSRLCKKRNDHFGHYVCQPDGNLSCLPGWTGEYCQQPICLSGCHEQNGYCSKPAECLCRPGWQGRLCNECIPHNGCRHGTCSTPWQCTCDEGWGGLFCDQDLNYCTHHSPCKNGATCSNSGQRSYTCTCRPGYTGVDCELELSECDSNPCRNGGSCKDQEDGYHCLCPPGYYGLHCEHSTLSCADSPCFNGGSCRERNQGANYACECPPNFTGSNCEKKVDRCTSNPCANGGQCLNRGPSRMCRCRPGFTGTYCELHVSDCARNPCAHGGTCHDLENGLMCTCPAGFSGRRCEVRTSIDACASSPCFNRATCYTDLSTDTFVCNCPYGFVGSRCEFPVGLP

B1: 36B7F3-hIgG1 chimeric antibody (antibody, V domains shown)
VH: QVQLQQSGPELVKPGASVKISCRASGYTFTDHHLNWVKQRPGQGLEWIGWIFPGSGSDYYNERFKDKATLTVDKSSSTAYMLLSSLTSEDSAVYFCERWDYWGQGTTLTVSS
VL: QIVLTQSPTIMSASPGEKVTMTCSASSSISYMHWYQQKPGTSPKRWIYDTSTLASGVPARFSGGGSGTSYSLTISSMEAEDAATYYCHQRSSYPLTFGAGTKLELKR
As for B1, the binding result is on record as “binds” in assay [1]; “binds” in assay [2]; “no binding (tested: up to 100 nM)” in assay [3]; “no binding (tested: highest dose level 100 nM)” in assay [4]; “binds” in assay [5]; “no binding (tested: up to 100 nM)” in assay [6]. In addition, in assay [7], the binding result was “binds”.

B2: 9E8D8-hIgG1 chimeric antibody (antibody, V domains shown)
VH: QVQLQQSGAELVRPGASVKLSCKALGYTFTDSEIHWVKQTPVHGLEWIGAIHPRNGGTAYNQKFRGKATLSADRSSNTAYMELSSLTSEDSAVYYCSRGYFLDYWGQGTSVTVSS
VL: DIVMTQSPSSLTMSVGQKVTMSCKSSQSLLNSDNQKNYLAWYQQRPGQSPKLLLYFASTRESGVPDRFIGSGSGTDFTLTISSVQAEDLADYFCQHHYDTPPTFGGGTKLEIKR
With B2, the binding result in assay [1] is given as “binds”; in assay [2], “binds”; in assay [3] it was “no binding (tested: up to 100 nM)”; in assay [4] it was “no binding (tested: highest dose level 100 nM)”; in assay [5] it was “binds”; in assay [6], “no binding (tested: up to 100 nM)”. Further, the binding result in assay [7] is listed as “binds”.
